From patent publication US20240101707A1, “A METHOD OF PREVENTING, ALLEVIATING OR TREATING A TUMOR” (JIANGSU ALPHAMAB BIOPHARMACEUTICALS CO., LTD., priority 2021, published 2024) come the findings set out here.

What is called Kd is the concentration at which binding is half-saturated. Read a high Kd as a looser complex.

This assay has as its target T1, Human PD-L1 (WT) (human, UniProt Q9NZQ7 19-127, limits assumed).
T1 construct: also called human PD-L1 N-terminal IgV domain
Description: affinity measurement, method not stated.

T1 sequence (Q9NZQ7 19-127 limits assumed): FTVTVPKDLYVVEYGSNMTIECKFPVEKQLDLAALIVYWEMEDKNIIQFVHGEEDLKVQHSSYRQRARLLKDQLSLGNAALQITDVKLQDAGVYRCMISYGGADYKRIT

B1: PD-L1 ISVD-9 (VHH)
VHH: QVQLVESGGGLVQPGGSLRLSCAASGKMSSRRCMAWFRQAPGKERERVAKLLTTSGSTYLADSVKGRFTISRDNSKNTVYLQMNSLRAEDTAVYYCAADSFEDPTCTLVTSSGAFQYWGQGTLVTVSS
notes: also called ISVD specific for PD-L1
Consider B1, for which binding was put at a Kd of 5.92 nM.
